Measurements taken from article PMC8488560.

Biological target: clathrin (triskelia purified from pig brain clathrin-coated vesicles) (pig)
Test: cryo-EM structure; clathrin cages assembled with a 60-fold molar excess of β2HA; single particle analysis of minicoat cages, signal subtraction, masked 3D classification and localized reconstruction; compared with clathrin-only minicoat cages

Substance: β2-adaptin 616-951, hinge and appendage of the human β2 subunit of the AP2 complex (β2HA) (from UniProt P63010-2 616-951) (domain or fragment)
- stoichiometry N (β2HA per terminal domain): 0.5
